Measured values published in patent publication US20180327500A1 (SYMPHOGEN A S, published 2018).

Molecular target: T1, Mouse blade 3
T1 construct: human/mouse chimera on transfected HEK293 cells; also called Mouse blade 3-IPT4
T1 MET ECD-SV5-GPI fusion: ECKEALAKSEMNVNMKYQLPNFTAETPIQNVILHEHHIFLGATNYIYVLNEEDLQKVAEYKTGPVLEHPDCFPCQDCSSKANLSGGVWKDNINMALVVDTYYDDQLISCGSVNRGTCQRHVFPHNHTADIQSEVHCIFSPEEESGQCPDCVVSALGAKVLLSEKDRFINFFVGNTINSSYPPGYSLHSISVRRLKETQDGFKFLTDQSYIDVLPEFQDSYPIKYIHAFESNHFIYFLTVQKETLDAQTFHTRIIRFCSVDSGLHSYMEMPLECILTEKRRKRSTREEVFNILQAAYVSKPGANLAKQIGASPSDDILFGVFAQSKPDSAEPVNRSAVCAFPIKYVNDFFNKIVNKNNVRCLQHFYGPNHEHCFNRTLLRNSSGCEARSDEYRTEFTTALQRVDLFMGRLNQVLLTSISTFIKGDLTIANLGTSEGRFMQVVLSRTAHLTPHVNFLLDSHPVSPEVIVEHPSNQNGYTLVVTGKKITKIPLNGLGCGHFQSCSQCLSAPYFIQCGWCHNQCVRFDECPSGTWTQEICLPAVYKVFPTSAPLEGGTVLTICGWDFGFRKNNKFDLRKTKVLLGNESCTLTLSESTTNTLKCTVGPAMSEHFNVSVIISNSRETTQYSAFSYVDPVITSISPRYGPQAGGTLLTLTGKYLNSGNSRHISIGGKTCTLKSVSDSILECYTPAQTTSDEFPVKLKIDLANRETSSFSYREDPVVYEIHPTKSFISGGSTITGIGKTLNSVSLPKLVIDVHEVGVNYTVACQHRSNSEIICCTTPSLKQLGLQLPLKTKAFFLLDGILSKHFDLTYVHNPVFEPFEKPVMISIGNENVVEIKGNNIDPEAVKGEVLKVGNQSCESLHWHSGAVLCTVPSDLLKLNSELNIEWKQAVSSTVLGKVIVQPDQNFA
Assay: flow cytometry on transfected HEK293 cells;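 note: antibodies applied at 50 µg/ml, binding called specific when fluorescence exceeds the mean signal on a negative control chicken or mouse MET construct plus four SD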
Method: Cut-off values defined as the average fluorescence signal of all antibodies tested at 50 μg/ml to the negative control chicken or mouse MET construct+four standard deviations were employed to discriminate background binding from specific binding for the domain exchange or blade exchange constructs.

B1: humanized antibody 9006 (antibody, human IgG1, kappa, V domains shown)
VH: QVQLVQSGSELKKPGASVKVSCKASGYTFTNFRMNWVKQAPGQGLKWMGWINTYTGEPTYVDDLKGRFVFSLDTSVSTAYLQISSLKAEDTAVYYCARKGIARAMDYWGQGTTVTVSS
VL: DIVMTQSPDSLAVSLGERATINCKSSQSLLDSGNQKNYLAWYQQKPGQPPKLLIFGASTRESGVPDRFSGSGSGTDFTLTISSLQAEDVAVYYCQNDHSYPYTFGQGTKLEIKR
notes: also called Hu9006; hu9006
B1: no binding (tested: 50 µg/ml).
